From patent publication US20240181074A1, “PEGYLATED T CELL ENGAGER WITH DUAL SPECIFICITIES TO CD3 AND CD19” (Shenzhen Enduring Biotech, Ltd., priority 2021, published 2024)

Columns and labels:
MS patients = details: at 48 weeks; cited from earlier work
human CD19 [1] = target: T1, human CD19 (Homo sapiens, UniProt P15391); experiment: BiaCore assay, binding to human CD19; details: ligand human CD19 captured on chip
T1 sequence (P15391 20-291 limits assumed): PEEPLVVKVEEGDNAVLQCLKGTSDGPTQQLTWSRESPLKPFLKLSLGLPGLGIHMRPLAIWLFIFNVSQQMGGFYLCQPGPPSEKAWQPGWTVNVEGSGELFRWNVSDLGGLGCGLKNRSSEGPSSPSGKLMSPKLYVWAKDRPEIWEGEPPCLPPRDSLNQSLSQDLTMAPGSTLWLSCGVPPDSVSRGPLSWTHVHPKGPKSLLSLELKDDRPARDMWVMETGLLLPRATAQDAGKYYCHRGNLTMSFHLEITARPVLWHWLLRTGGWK
Description: (§1) The anti-CD3 scFv (SCACD3) has the amino acid sequence set forth in SEQ ID NO: 2. The anti-CD19 scFv (SCACD19) has the amino acid sequence set forth in SEQ ID NO: 1. Methods for preparation of theses samples were described in detail in WO 2018/075308 A1.
(§2) General procedure: Diluted human CD19 (AcroBiosystems, Cat. CD19-H5259) or human CD3E&3D (AcroBiosystems, Cat. CDD-H52W0) were captured on the sensor chip through Fc capture method. The capture time for human CD3E & CD3D and for human CD19 was set for 12 s and 12-30 s respectively and capture flow rate was […]. Each sample tested was serially diluted into 6-8 concentrations. The association time and dissociation time for the analytes were set for 180 s and 420 s respectively, and the flow rate for the analyte was set at […]. For surface regeneration, 10 mM Glycine-HCl buffer was used; the contact time was set for 30 s and the flow rate was […]. Flow cell 1 and blank injection of buffer in each cycle were used as double references for Response Units subtraction. All data were processed using BiaCore T2000 Evaluation software (version 3.1).

human CD3E&CD3D protein = target: T2, human CD3E&CD3D protein (Homo sapiens, UniProt P07766); experiment: ELISA assay, binding to human CD3E&CD3D protein; details: coating concentration of 1 μg/ml, OD450
T2 construct: purchased AcroBiosystems CDD-H52W0
T2 sequence (P07766 23-126 limits assumed): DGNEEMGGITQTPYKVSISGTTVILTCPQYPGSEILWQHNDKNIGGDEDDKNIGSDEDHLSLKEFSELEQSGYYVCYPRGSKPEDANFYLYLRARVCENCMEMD
T2 sequence (P04234 22-105 partner limits assumed): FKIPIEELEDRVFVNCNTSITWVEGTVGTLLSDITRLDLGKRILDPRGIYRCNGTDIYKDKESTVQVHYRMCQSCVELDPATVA
Method: (§3) Plates were coated with SCACD3, CD3-PEG and JY108 respectively at 100 μl/well. […] After coating, each plate was washed for 3 times with PBST (200 μL/well). Next, each plate was blocked with 5% BSA in PBST at 37° C. for 2 hours. After blocking, each plate was washed with PBST for 3 times followed by the addition of either […], 0.1 μg, and 0 μg human CD19-Fc protein (Acrobiosystems, Code: CD9-H5259) in 0.5% BSA in PBST (10 μg/mL, 1 μg/mL, 0 μg/mL, 100 μL/well) or […] human CD3E&CD3D (Acrobiosytems, Code: CDD-H52W0) in 0.5% BSA in PBST (10 μg/mL, 100 μl/well) to corresponding wells. The plates were incubated at 37° C. for 1 hour followed by washing with PBST for 3 times. 100 μL of […] HRP conjugated anti-human IgG (GenScript, Code: A01854) was then added to each well. The plates were incubated at 37° C. for 1.5 hours. After incubation, each plate was washed with PBST for 3 times followed by the addition of 100 μL of TMB to each well. The development reaction for each plate was set in dark for 15 minutes and terminated with 100 μL/per well of stop solution.

[2] = in vivo; cited from earlier work
[3] = human, in vivo; cited from earlier work
human CD3E&3D = target: T3, human CD3E&3D (Homo sapiens, UniProt P07766); experiment: BiaCore assay, binding to human CD3E&3D; details: ligand human CD3E&3D captured on chip
T3 construct: purchased AcroBiosystems CDD-H52W0
T3 sequence (P07766 23-126 limits assumed): as the sequence (P07766 23-126 limits assumed) above
T3 sequence (P04234 22-105 partner limits assumed): as the sequence (P04234 22-105 partner limits assumed) above
Description: as §1, §2

human CD19 [4] = target: T1, human CD19; experiment: ELISA assay, binding to human CD19 protein; details: OD450
Method: as §3

patients = details: human, in vivo; cited from earlier work

Kd (human CD19 [1]) [nM]	ka (human CD19 [1]) [M⁻¹ s⁻¹]	kd (human CD19 [1]) [s⁻¹]	Kd (human CD19 [1]; listed as blinatumomab) [nM]	ranking of affinity to human CD3E&CD3D (human CD3E&CD3D protein)	Kd (human CD3E&3D) [nM]	ka (human CD3E&3D) [M⁻¹ s⁻¹]	kd (human CD3E&3D) [s⁻¹]	Substance	MS patients experiencing relapse of the disease (MS patients) [%]	half-life [2]	circulation half-life [3] [h]	ranking of binding to human CD19 (human CD19 [4])	toxicity in patients (patients)
–	–	–	–	–	–	–	–	rituximab: anti-CD20 antibody	~20	–	–	–	–
0.207	1.92e+06	0.000397	0.207	SCACD3>blinatumomab>JY108>SCACD3-PEG	1.14	1.08e+06	0.00123	Blinatumomab: T-BsAb or BiTE (Bispecific T cell Engager) approved for ALL, redirecting T cells to CD19+ B cells; control drug	–	about 2 h	1.25	SCACD19>blinatumomab>JY108>SCACD19-linker	frequent cytokine release syndrome (CRS) and central nerve system (CNS) toxicity
